Laboratory results published in the Immune Epitope Database (IEDB).

How the values were obtained:
[1] = target: HLA-B*40:01; test: IEDB peptide-MHC binding, purified MHC/direct/fluorescence; filed as Kd, often an IC50 or EC50 that approximates it; ≥ and ≤ were set here for values at or beyond the usual limits of such assays
[2] = target: HLA-B*27:05; test: as above
[3] = target: HLA-A*69:01; test: as above
[4] = target: HLA-A*31:01; test: as above
[5] = target: HLA-B*08:01; test: as above
[6] = target: HLA-A*26:01; test: as above
[7] = target: HLA-B*35:01; test: as above
[8] = target: HLA-A*11:01; test: as above; settings: source organism: Vibrio cholerae
[9] = target: HLA-A*02:01; test: as above
[10] = target: HLA-A*01:01; test: as above
[11] = target: HLA-A*03:01; test: as above
[12] = target: HLA-B*44:02; test: as above
[13] = target: HLA-B*58:01; test: as above
[14] = target: HLA-B*07:02; test: as above
[15] = target: HLA-C*15:02; test: as above
[16] = target: HLA-B*57:01; test: as above; settings: source organism: Camelpox virus M-96
[17] = target: HLA-A*24:03; test: as above; settings: source organism: Tick-borne encephalitis virus
[18] = target: HLA-B*15:01; test: as above; settings: source organism: Alkhumra hemorrhagic fever virus
[19] = target: HLA-C*06:02; test: as above
[20] = target: HLA-A*01:01; test: IEDB peptide-MHC binding, purified MHC/competitive/fluorescence; filed as Kd, often an IC50 or EC50 that approximates it; ≥ and ≤ were set here for values at or beyond the usual limits of such assays; settings: source organism: Homo sapiens
[21] = target: HLA-A*29:02; test: as above
[22] = target: HLA-A*02:01; test: as above
[23] = target: HLA-B*39:01; test: as above; settings: source organism: Canarypox virus
[24] = target: HLA-B*18:01; test: as above; settings: source organism: Canarypox virus
[25] = target: HLA-A*26:01; test: as above; settings: source organism: Canarypox virus
[26] = target: HLA-A*03:01; test: as above; settings: source organism: Canarypox virus
[27] = target: HLA-B*27:03; test: as above; settings: source organism: Canarypox virus
[28] = target: HLA-B*51:01; test: as above; settings: source organism: Canarypox virus
[29] = target: HLA-B*15:17; test: as above; settings: source organism: Canarypox virus
[30] = target: HLA-B*57:01; test: as above; settings: source organism: Canarypox virus
[31] = target: HLA-B*46:01; test: as above; settings: source organism: Canarypox virus
[32] = target: HLA-A*02:19; test: as above; settings: source organism: Canarypox virus
[33] = source organism: Vibrio cholerae
[34] = source organism: Vaccinia virus WR
[35] = source organism: Camelpox virus M-96
[36] = source organism: Alkhumra hemorrhagic fever virus
[37] = source organism: Tick-borne encephalitis virus
[38] = source organism: Vaccinia virus Copenhagen
[39] = source organism: Canarypox virus

Sequence KEDPGDHIF has a Kd [1, 33] of 0.0249 µM, a Kd [2, 33] of no less than 20 µM and a Kd [3, 33] of no less than 20 µM. For the same sequence, the Kd [4, 33] was no less than 20 µM, the Kd [5, 33] was no less than 20 µM and the Kd [6, 33] was no less than 20 µM. It also gave a Kd [7, 33] of 0.224 µM, a Kd [8] of no less than 20 µM and a Kd [9, 33] of no less than 20 µM. The Kd [10, 33] was no less than 20 µM, the Kd [11, 33] was no less than 20 µM and the Kd [12, 33] was no less than 20 µM. The Kd [13, 33] was no less than 20 µM and the Kd [14, 33] was no less than 20 µM.

KSLVQYIKF gave a Kd [15, 34] of no less than 20 µM, a Kd [13, 35] of 0.0635 µM and a Kd [16] of 0.508 µM.

Sequence TNFEFFGKL has a Kd ([15]; source organism: Caenorhabditis elegans) of 1.6 µM.

Sequence WPWNAREDV has a Kd [1, 36] of no less than 20 µM, a Kd [2, 36] of no less than 20 µM and a Kd [17] of 5.29 µM. It also gave a Kd [4, 36] of no less than 20 µM, a Kd [5, 37] of 7.65 µM and a Kd [6, 36] of no less than 20 µM. It also gave a Kd [18] of no less than 20 µM, a Kd [7, 37] of 0.103 µM and a Kd [9, 36] of no less than 20 µM. The Kd [10, 36] was no less than 20 µM, the Kd [11, 36] was no less than 20 µM and the Kd [12, 36] was no less than 20 µM. For the same sequence, the Kd [13, 36] was no less than 20 µM and the Kd [14, 37] was 0.466 µM.

WYYDFHFFV showed a Kd [3, 35] of 0.27 µM, a Kd [9, 35] of 0.391 µM and a Kd [19, 34] of no less than 20 µM.

Sequence YFEYIEENKY has a Kd [20] of 1.56 µM and a Kd ([21]; source organism: Homo sapiens) of no more than 0.0001 µM.

YLHPKDKYL was tested, and the Kd [22, 38] was 0.0125 µM and the Kd [19, 38] was 2.08 µM.

YLNDFAQLL showed a Kd ([19]; source organism: Mycobacterium tuberculosis str. Haarlem) of 0.025 µM.

YMMDGNECP was tested, and the Kd [23] was no less than 20 µM, the Kd [24] was no less than 20 µM and the Kd [25] was no less than 20 µM. It also gave a Kd [22, 39] of 0.247 µM, a Kd [26] of no less than 20 µM and a Kd [21, 39] of no less than 20 µM. For the same sequence, the Kd [27] was no less than 20 µM, the Kd [28] was no less than 20 µM and the Kd [29] was no less than 20 µM. It also gave a Kd [30] of no less than 20 µM, a Kd [31] of no less than 20 µM and a Kd [32] of 0.2 µM.
